Earlier results on one substance are cited in article PMC4115806.

The target in this data set is EPCR (Homo sapiens) (UniProt Q9UNN8).
Chain of EPCR (Homo sapiens) (Q9UNN8 18-210): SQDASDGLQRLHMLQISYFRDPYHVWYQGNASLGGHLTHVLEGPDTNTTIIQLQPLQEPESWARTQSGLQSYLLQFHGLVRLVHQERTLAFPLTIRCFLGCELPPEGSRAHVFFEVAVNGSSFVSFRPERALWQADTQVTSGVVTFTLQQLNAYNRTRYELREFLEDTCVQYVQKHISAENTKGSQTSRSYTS

Chain of protein C (P04070 43-197): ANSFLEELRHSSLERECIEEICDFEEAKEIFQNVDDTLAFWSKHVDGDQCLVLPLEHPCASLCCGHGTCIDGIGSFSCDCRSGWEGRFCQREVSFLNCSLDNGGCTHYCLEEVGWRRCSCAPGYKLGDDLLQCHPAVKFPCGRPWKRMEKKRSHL

On to protein C (from UniProt P04070), for which the Kd is 0.03 µM.

What is called Kd is the concentration at which binding is half-saturated.
